Values of other authors, collected in article PMC2650391.

Molecular target: Histone H3K4me3 peptide (Homo sapiens) (UniProt P68431)

ING2 PHD, sequence (Q9H160 209-264): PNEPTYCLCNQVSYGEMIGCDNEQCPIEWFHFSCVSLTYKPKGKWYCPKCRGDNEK

- Kd: 1500 nM
Substance: ING2 PHD (from UniProt Q9H160)
